Data: US20170002075A1 (AbbVie / Abbott, published 2017)

What was measured:
[1] = biological target: T1, recombinant human RAGE (plate coat of the competition ELISA of Example 1.4); assay: competition ELISA on plates coated with recombinant human RAGE (2 µg/mL); competitor: biotinylated hybridoma-derived 7F9 (7F9-biotin), streptavidin-HRP, OD 450 nm; the unit comes from the axis 'Log MAbs (M)'
T1 construct: not shown: The carrier of the coated preparation, if it had one
Description: (§1) The purified chimeric anti-human RAGE monoclonal antibodies were tested for their ability to bind human RAGE in a competition ELISA. […] Equal volumes (50 μL) of each recombinant chimeric anti-human RAGE monoclonal antibodies or hybridoma-derived anti-human RAGE monoclonal antibodies and each corresponding biotinylated hybridoma-derived anti-RAGE mAbs were mixed. 50 μL of this mixture was then added to ELISA plates pre-coated with recombinant human RAGE at 2 μg/mL and incubated for 1.5 hours at room temperature. Wells were washed three times with PBS+0.05% Tween-20. Streptavidin HRP (1 mg/mL) was diluted 1:16000 in PBST+10% Superblock; 50 µL/well was added and the plates incubated for 1 hour at room temperature. Plates were washed 3 times with PBS+0.05% Tween-20. 50 µL of TMB solution (Sigma, St Louis, Mo.) was added to each well and incubated for 10 minutes at room temperature. The reaction was stopped by addition of IN sulphuric acid. Plates were read spectrophotometrically at a wavelength of 450 nm.

[2] = biological target: T1, recombinant human RAGE (plate coat of …); assay: competition ELISA on plates coated with recombinant human RAGE (2 µg/mL); competitor: biotinylated hybridoma-derived 11E6 (11E6-biotin), streptavidin-HRP, OD 450 nm; the unit comes from the axis 'Log MAbs (M)'
Description: as §1

[3] = biological target: T2, hRAGE (1-331) / human sRAGE 1-331, V#400 (human, UniProt Q15109 23-331); assay: competition ELISA on coated hRAGE (1-331); competitor biotinylated m11E6 at 0.3 µg/ml
T2 construct: also called sRAGE [RAGE (1-331)]; RAGE (antigen of the Biacore runs)
Description: ELISA plates (Costar 3369) were coated overnight at 4° C. with 50 μl/well of 2 μg/ml hRAGE (1-331) in 0.2 M sodium carbonate-bicarbonate buffer, pH 9.4, washed with Wash Buffer (PBS containing 0.1% Tween 20), and blocked for 1 hr at room temperature with 200 pd/well of 2% nonfat dry milk in PBS. […] After incubating the plates for 1 hr at room temperature, and washing with Wash Buffer, bound antibodies were detected using 100 μl/well of 1:10,000 dilution of HRP-conjugated streptavidin (Fitzgerald) in ELISA buffer. After incubating for 1 hr at room temperature, and washing with Wash Buffer, color development was performed by adding 100 μl/well of TMB Buffer (Zymed). After incubating for 15 min at room temperature, color development was stopped by adding 50 μl/well of IN hydrochloric acid. Absorbance was read at 490 nm.

[4] = biological target: T2, hRAGE (1-331) / human sRAGE 1-331, V#400; assay: Biacore SPR, mAb captured via anti-human Fc, sRAGE (1-331) injected 30-0.12 nM, PBS-P buffer, 1:1 fit
Source text: Biacore 2000 and Biacore T100 instruments were used to measure anti-RAGE mAb binding kinetics. The assay format for mAb affinity analysis was Fc-based capture via immobilized anti-Fc antibodies. A standard amine coupling protocol was employed to immobilize Fc-specific IgG via primary amines to the carboxy-methyl (CM) dextran surface of CM5 sensorchips (Biacore). For the study of mouse anti-RAGE mAbs, anti-mouse Fc (Biacore, anti-mouse, BR-1005-14) was used as the immobilized capture reagent and for the study of humanized anti-RAGE mAbs, anti-human Fc (Pierce 31125) was used as the immobilized capture reagent. An automated protocol, available on the Biacore 2000 and Biacore T100, was used to immobilize 8000-10000 RU of capture reagent in all 4 flowcells of the sensorchip. Briefly, the CM-dextran surfaces were activated by freshly prepared 1:1 50 mM N-hydroxysuccinimide (NHS):200 mM 3-(N,N-dimethylamino) propyl-N-ethylcarbodiimide (EDC). Then the anti-Fc IgG capture reagent (20 ug/ml in 10 mM sodium acetate, pH4.5) was applied to the surface followed by deactivation of the surface and blocking of the residual reactive sites with 1M ethanolamine (pH 8.5).
The running buffer employed was PBS-P [1×PBS (Sigma P3813), pH 7.4, 0.005% P20 surfactant (Biacore)] for the humanized antibodies. Each experimental cycle consisted of the following steps: 1) anti-RAGE mAbs were captured in flowcells 2, 3 or 4 to a level of 50-200 RU (depending on the antigen). All measurements were referenced against flowcell 1 which had no captured anti-RAGE mAb. 2) Antigen was injected through all 4 flowcells, 240 ul at 80 ul/min. After the antigen injection, dissociation was monitored for 600 seconds at 80 ul/min. 3) the anti-Fc capture surface was regenerated with low pH glycine. For kinetic determinations, antigen injections were a 3 fold dilution series from either 30 nM-0.12 nM (for sRAGE [RAGE (1-331)] and buffer only in randomized duplicates.
Data were processed using either Biacore evaluation software or Scrubber 2.0 software (BioLogic Software). Briefly, the data were double referenced by first, subtracting the signal from the reference cell and second, by subtracting the signal from buffer-only injections.

T2 sequence (Q15109 23-331): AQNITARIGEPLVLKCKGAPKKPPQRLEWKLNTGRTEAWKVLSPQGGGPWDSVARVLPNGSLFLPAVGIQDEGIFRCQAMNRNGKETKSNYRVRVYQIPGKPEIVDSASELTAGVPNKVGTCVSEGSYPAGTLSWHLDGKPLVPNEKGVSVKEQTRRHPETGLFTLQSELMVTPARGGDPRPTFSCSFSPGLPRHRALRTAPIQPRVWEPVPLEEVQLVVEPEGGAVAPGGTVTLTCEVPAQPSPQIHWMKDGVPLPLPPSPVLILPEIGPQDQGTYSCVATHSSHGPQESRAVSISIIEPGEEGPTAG
T1 sequence (chain, as listed by the source limits assumed): as the sequence (Q15109 23-331) above

Row | Binder | IC50 [3] [nM] | also measured
1 | 7F9-recombinant (antibody, V domains shown, also called recombinant chimeric anti-human RAGE monoclonal antibody 7F9 (human IgG1/kappa)) VH: EEKLEESGGGLVQLGGSMKISCVASGFTLSNYWMDWVRQSPEKGLEWIAEIRLKSNYYSTHYAESVKGRFSISRDDSKGSVSLQMDNLTAEDTGIYFCARNAYWYFDVWGTGTTVTVSS VL: DIVMTQSHKFMSTSVGDRVSATCKASQDVGTSVAWYQQKLGQSPKLLIYWTSTRHTGVPDRFTGSGSGTDFTLTISNVQSEDLADYFCQQYNNYPLTFGDGTKLELKR |  | EC50 [1]: 108 nM
2 | 11E6-recombinant (antibody, V domains shown, also called recombinant chimeric anti-human RAGE monoclonal antibody 11E6 (human IgG1/kappa)) VH: QIQLVQSGPELKKPGETVKISCKASGYTFTNFGMNWVKQAPGKGLKWMGYINTNTGESIYSEEFKGRFAFSLETSASTAYLQINNLKNEDTATYFCARSRMVTAYGMDYWGQGTSVTVSS VL: DIVMTQSQKFMSTSVGDRVSITCKASQNVGTAVAWYQQRPGQSPKLLIFSASNRYTGVPDRFTGSGSGTDFTLTLSNMQPEDLADYFCQQYSSYPLTFGVGTKLELKR |  | EC50 [2]: 64.7 nM
3 | humanized anti-RAGE antibody h11E6.1 (antibody, V domains shown, Full-length humanized antibody transiently produced in 293-6E cells) VH: EVQLVQSGSELKKPGASVKVSCKASGYTFTNFGMNWVRQAPGQGLEWMGYINTNTGESIYSEEFKGRFVFSLDTSVSTAYLQICSLKAEDTAVYYCARSRMVTAYGMDYWGQGTTVTVSS VL: DIQMTQSPSSLSASVGDRVTITCKASQNVGTAVAWYQQKPGKAPKLLIYSASNRYTGVPSRFSGSGSGTDFTLTISSLQPEDFATYYCQQYSSYPLTFGQGTKLEIKR | 19.7 | 
4 | humanized anti-RAGE antibody h11E6.5 (antibody, V domains shown, Full-length humanized antibody transiently produced in 293-6E cells) VH: EIQLVQSGSELKKPGASVKVSCKASGYTFTNFGMNWVRQAPGQGLEWMGYINTNTGESIYSEEFKGRFVFSLDTSVSTAYLQICSLKAEDTAVYFCARSRMVTAYGMDYWGQGTTVTVSS VL: DIQMTQSPSSLSASVGDRVTITCKASQNVGTAVAWYQQKPGKAPKLLIYSASNRYTGVPSRFSGSGSGTDFTLTISSLQPEDFATYYCQQYSSYPLTFGQGTKLEIKR | 16.1 | 
5 | humanized anti-RAGE antibody h11E6.3 (antibody, V domains shown, Full-length humanized antibody transiently produced in 293-6E cells) VH: EVQLVQSGSELKKPGASVKVSCKASGYTFTNFGMNWVRQAPGQGLEWMGYINTNTGESIYSEEFKGRFVFSLDTSVSTAYLQICSLKAEDTAVYYCARSRMVTAYGMDYWGQGTTVTVSS VL: EIVMTQSPATLSLSPGERATLSCKASQNVGTAVAWYQQKPGQAPRLLIYSASNRYTGIPARFSGSGSGTDFTLTISSLQSEDFAVYYCQQYSSYPLTFGQGTKLEIKR | 18.8 | 
6 | humanized anti-RAGE antibody h11E6.4 (antibody, V domains shown, Full-length humanized antibody transiently produced in 293-6E cells) VH: EVQLVQSGSELKKPGASVKVSCKASGYTFTNFGMNWVRQAPGQGLEWMGYINTNTGESIYSEEFKGRFVFSLDTSVSTAYLQICSLKAEDTAVYYCARSRMVTAYGMDYWGQGTTVTVSS VL: EIVMTQSPATLSLSPGERATLSCKASQNVGTAVAWYQQKPGQSPRLLIFSASNRYTGVPARFSGSGSGTDFTLTISSLQSEDFAVYFCQQYSSYPLTFGQGTKLEIKR | 14.1 | 
7 | humanized anti-RAGE antibody h11E6.7 (antibody, V domains shown, Full-length humanized antibody transiently produced in 293-6E cells) VH: EIQLVQSGSELKKPGASVKVSCKASGYTFTNFGMNWVRQAPGQGLEWMGYINTNTGESIYSEEFKGRFVFSLDTSVSTAYLQICSLKAEDTAVYFCARSRMVTAYGMDYWGQGTTVTVSS VL: EIVMTQSPATLSLSPGERATLSCKASQNVGTAVAWYQQKPGQAPRLLIYSASNRYTGIPARFSGSGSGTDFTLTISSLQSEDFAVYYCQQYSSYPLTFGQGTKLEIKR | 15.5 | 
8 | humanized anti-RAGE antibody h11E6.8 (antibody, V domains shown, Full-length humanized antibody transiently produced in 293-6E cells) VH: EIQLVQSGSELKKPGASVKVSCKASGYTFTNFGMNWVRQAPGQGLEWMGYINTNTGESIYSEEFKGRFVFSLDTSVSTAYLQICSLKAEDTAVYFCARSRMVTAYGMDYWGQGTTVTVSS VL: EIVMTQSPATLSLSPGERATLSCKASQNVGTAVAWYQQKPGQSPRLLIFSASNRYTGVPARFSGSGSGTDFTLTISSLQSEDFAVYFCQQYSSYPLTFGQGTKLEIKR | 10.8 | Kd [4]: 0.033 nM; koff [4]: 0.00084 s⁻¹; kon [4]: 2.5e+07 M⁻¹ s⁻¹
9 | humanized anti-RAGE antibody h11E6.9 (antibody, V domains shown, Full-length humanized antibody transiently produced in 293-6E cells) VH: EVQLVQSGAEVKKPGASVKVSCKASGYTFTNFGMNWVRQAPGQGLEWMGYINTNTGESIYSEEFKGRVTMTRDTSTSTAYMELSSLRSEDTAVYYCARSRMVTAYGMDYWGQGTSVTVSS VL: DIQMTQSPSSLSASVGDRVTITCKASQNVGTAVAWYQQKPGKAPKLLIYSASNRYTGVPSRFSGSGSGTDFTLTISSLQPEDFATYYCQQYSSYPLTFGQGTKLEIKR | 17.9 | 
10 | humanized anti-RAGE antibody h11E6.11 (antibody, V domains shown, Full-length humanized antibody transiently produced in 293-6E cells) VH: EVQLVQSGAEVKKPGASVKVSCKASGYTFTNFGMNWVRQAPGQGLEWMGYINTNTGESIYSEEFKGRVTMTRDTSTSTAYMELSSLRSEDTAVYYCARSRMVTAYGMDYWGQGTSVTVSS VL: EIVMTQSPATLSLSPGERATLSCKASQNVGTAVAWYQQKPGQAPRLLIYSASNRYTGIPARFSGSGSGTDFTLTISSLQSEDFAVYYCQQYSSYPLTFGQGTKLEIKR | 19.9 | 
11 | humanized anti-RAGE antibody h11E6.12 (antibody, V domains shown, Full-length humanized antibody transiently produced in 293-6E cells) VH: EVQLVQSGAEVKKPGASVKVSCKASGYTFTNFGMNWVRQAPGQGLEWMGYINTNTGESIYSEEFKGRVTMTRDTSTSTAYMELSSLRSEDTAVYYCARSRMVTAYGMDYWGQGTSVTVSS VL: EIVMTQSPATLSLSPGERATLSCKASQNVGTAVAWYQQKPGQSPRLLIFSASNRYTGVPARFSGSGSGTDFTLTISSLQSEDFAVYFCQQYSSYPLTFGQGTKLEIKR | 11.3 | Kd [4]: 0.083 nM; koff [4]: 0.0017 s⁻¹; kon [4]: 2e+07 M⁻¹ s⁻¹
12 | humanized anti-RAGE antibody h11E6.13 (antibody, V domains shown, Full-length humanized antibody transiently produced in 293-6E cells) VH: EIQLVQSGAEVKKPGASVKVSCKASGYTFTNFGMNWVRQAPGQGLEWMGYINTNTGESIYSEEFKGRFTFTLDTSTSTAYMELSSLRSEDTAVYFCARSRMVTAYGMDYWGQGTSVTVSS VL: DIQMTQSPSSLSASVGDRVTITCKASQNVGTAVAWYQQKPGKAPKLLIYSASNRYTGVPSRFSGSGSGTDFTLTISSLQPEDFATYYCQQYSSYPLTFGQGTKLEIKR | 16.8 | 
13 | humanized anti-RAGE antibody h11E6.15 (antibody, V domains shown, Full-length humanized antibody transiently produced in 293-6E cells) VH: EIQLVQSGAEVKKPGASVKVSCKASGYTFTNFGMNWVRQAPGQGLEWMGYINTNTGESIYSEEFKGRFTFTLDTSTSTAYMELSSLRSEDTAVYFCARSRMVTAYGMDYWGQGTSVTVSS VL: EIVMTQSPATLSLSPGERATLSCKASQNVGTAVAWYQQKPGQAPRLLIYSASNRYTGIPARFSGSGSGTDFTLTISSLQSEDFAVYYCQQYSSYPLTFGQGTKLEIKR | 14 | 
14 | humanized anti-RAGE antibody h11E6.16 (antibody, V domains shown, Full-length humanized antibody transiently produced in 293-6E cells) VH: EIQLVQSGAEVKKPGASVKVSCKASGYTFTNFGMNWVRQAPGQGLEWMGYINTNTGESIYSEEFKGRFTFTLDTSTSTAYMELSSLRSEDTAVYFCARSRMVTAYGMDYWGQGTSVTVSS VL: EIVMTQSPATLSLSPGERATLSCKASQNVGTAVAWYQQKPGQSPRLLIFSASNRYTGVPARFSGSGSGTDFTLTISSLQSEDFAVYFCQQYSSYPLTFGQGTKLEIKR | 9.2 | Kd [4]: 0.05 nM; koff [4]: 0.0014 s⁻¹; kon [4]: 2.8e+07 M⁻¹ s⁻¹
